Experimental findings from paper PMC3916239, “Distinct DNA Binding Sites Contribute to the TCF Transcriptional Switch in C. elegans and Drosophila” are described below.

Data set [1] addresses T1, POP-1 (Caenorhabditis elegans, UniProt Q10666 1-438).
T1 sequence: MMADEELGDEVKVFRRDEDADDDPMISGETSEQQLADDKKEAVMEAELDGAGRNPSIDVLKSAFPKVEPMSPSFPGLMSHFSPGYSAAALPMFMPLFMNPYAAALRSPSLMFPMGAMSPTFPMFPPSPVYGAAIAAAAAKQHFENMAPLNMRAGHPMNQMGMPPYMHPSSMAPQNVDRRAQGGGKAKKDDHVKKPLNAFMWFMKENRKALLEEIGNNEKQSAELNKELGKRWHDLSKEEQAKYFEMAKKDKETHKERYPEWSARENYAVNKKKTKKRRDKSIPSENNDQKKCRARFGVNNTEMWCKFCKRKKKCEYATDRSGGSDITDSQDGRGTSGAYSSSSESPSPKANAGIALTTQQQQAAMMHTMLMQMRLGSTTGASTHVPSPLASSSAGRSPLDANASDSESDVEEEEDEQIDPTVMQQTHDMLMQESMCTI
The data set can be described thus: EMSA; 10 mM Tris-HCl pH 7.5, 50 mM KCl, 1 mM DTT, 5 mM MgCl2, 0.05% NP-40, 50 ug/ml poly(dI-dC), glycerol; 20 ul; 5 min on ice then 25 min room temperature; 6% native gel. Particulars: protein: recombinant, tags: 6xHis.

Data set [2] has as its target T1, POP-1. Description: competition; no competition at 200-fold excess; 10 mM Tris-HCl pH 7.5, 50 mM KCl, 1 mM DTT, 5 mM MgCl2, 0.05% NP-40, 50 ug/ml poly(dI-dC), glycerol; 20 ul; 5 min on ice then 25 min room temperature; 6% native gel. The note with it: protein: recombinant; tags: 6xHis.

B1: K08D12.3 long WT probe (dsDNA)
DNA 1: CTGGCACGCGGCCAACATTCGATTTTGGGACGATCGACACGTTCTGGCCACATTTTCTTTGATTTTTTCTGATTTCGCCGACTTTTTTC
DNA 2: GAAAAAAGTCGGCGAAATCAGAAAAAATCAAAGAAAATGTGGCCAGAACGTGTCGATCGTCCCAAAATCGAATGTTGGCCGCGTGCCAG
Turning to B1, the binding result in data set [1] (label: biotin (labeled probe)) is given as “binds”.

B2: K08D12.3 HMG mutant (dsDNA)
DNA 1: CTGGCACGCGGCCAACATTCGATTTTGGGACGATCGACACGTTCTGGCCACATTTTCTGTGCGTTTTTCTGATTTCGCCGACTTTTTTC
DNA 2: GAAAAAAGTCGGCGAAATCAGAAAAACGCACAGAAAATGTGGCCAGAACGTGTCGATCGTCCCAAAATCGAATGTTGGCCGCGTGCCAG
As for B2, the binding result in data set [2] is recorded as “no binding”.

B3: K08D12.3 Helper3 mutant (dsDNA)
DNA 1: CTGGCACGCGGCCAACATTCGATTTTGGGACGATCGACACGTTCTGGCCACATTTTCTTTGATTTTTTCTGATTTCTAATCAGTTTTTC
DNA 2: GAAAAACTGATTAGAAATCAGAAAAAATCAAAGAAAATGTGGCCAGAACGTGTCGATCGTCCCAAAATCGAATGTTGGCCGCGTGCCAG
Turning to B3, in data set [2], the binding result is given as “no binding”.

B4: ceh-22b WRE WT probe 69 bp (dsDNA)
DNA 1: TACGAGAAGCGGCGATTCAAGAGTTTCAAATAACTTCTCCACCGCCTTTTGAAGTTGCCGAAAATAGTT
DNA 2: AACTATTTTCGGCAACTTCAAAAGGCGGTGGAGAAGTTATTTGAAACTCTTGAATCGCCGCTTCTCGTA
Take B4: the binding result in data set [1] (label: biotin (labeled probe)) is listed as “binds”.

B5: psa-3 WRE WT probe 47 bp (dsDNA)
DNA 1: ACCGTTATGGCCGTGGAGGCTCTTTTGATGTGCAGCCGACAAGTACG
DNA 2: CGTACTTGTCGGCTGCACATCAAAAGAGCCTCCACGGCCATAACGGT
In the case of B5, in data set [1] (label: biotin (labeled probe)), the binding result is “binds”.

B6: Y66D12A.9 probe (dsDNA)
DNA 1: TTGGCGCCGAGCACATATTTCCCATCGGAAGCTTTGAAATAGTCGAGCCCGCGGCCACTT
DNA 2: AAGTGGCCGCGGGCTCGACTATTTCAAAGCTTCCGATGGGAAATATGTGCTCGGCGCCAA
Turning to B6, in data set [1] (label: biotin), the binding result is reported as “no binding”.

B7: R05G6.5 probe (dsDNA)
DNA 1: CGGTCGCCGCGCCAATGTGCTTGCCTTTGAACTCTCAATTTGCTGTTGTGGCGTGAT
DNA 2: ATCACGCCACAACAGCAAATTGAGAGTTCAAAGGCAAGCACATTGGCGCGGCGACCG
Take B7: the binding result in data set [1] (label: biotin) is “no binding”.
